Results: patent publication US20240182864A1, “NOVEL CHEMICAL COMBINATIONS AND METHODS OF USE THEREOF, TOWARDS DIFFERENTIATION OF HUMAN PROGENITOR CELLS INTO FUNCTIONAL BETA CELLS” (Salk Institute for Biological Studies, priority 2021, published 2024)

Test system: H1 hESCs
Experiment: Generation of pancreatic progenitors (stages 1-4) and PP 3D clusters, flow cytometry for PDX1/NKX6.1
Format: cell-based, human
Method: hESCs were maintained as feeder-free in mTeSR™1 (STEMCELL Technologies Inc.) according to the manufacturer's instructions. Before differentiation, adherent hESCs (at ˜90% confluence) were rinsed with PBS and then incubated with Accutase (Millipore) for 6-8 min at 37° C. Dissociated single cells were rinsed twice with DMEM/F12 and spun at 300 g for 3 min. The resulting cells were re-suspended in mTeSR™1 which was supplied with 10μM Y27632 (Sigma-Aldrich), and seeded on 1:30 diluted Matrigel (BD Biosciences)-coated dishes at a density of 55,000 cells/cm^2. The next day, the medium was exchanged for mTeSR™MI and maintained for one more day prior to differentiation initiation.
Stage 1: Definitive Endoderm (3 days). […] Each 800 ml MS12 medium was made with 744 ml MCDB131 medium (ThermoFisher), 3.2 ml 45% glucose (Sigma), 20 ml 20% fat-acid free BSA, and 16 ml 7.5% sodium bicarbonate (Gibco).
Stage 2: Posterior Foregut (3 days): after PBS rinse, cells are exposed to MS12 medium with KGF (Peprotech, 50 ng/ml), B27 (Gibco, 100×), Vitamin C (Vc, 0.25 mM, sigma) and dorsomorphin (0.75 μM). Cells were fed with fresh medium daily.
Stage 3: Pancreatic endoderm (3 days): After PBS rinse, cells were exposed to DMEM with B27 (100×), retinoic acid (RA, 2 μM, Sigma), Noggin (100 ng/ml, Peprotech), SANTI (0.25 μM, sigma), Vitamin C (Vc, 0.25 mM, sigma), Pen/Strep (100×, Gibco) and Glutamax (100×, Gibco). Cells were fed with fresh medium every other day.
Stage 4: Pancreatic progenitor (3-4 days): After PBS rinse, cells were exposed to DMEM with B27 (100×), EGF (100 ng/ml, Peprotech)+Nicotinamide (NICO, 10 mM; Sigma)+Noggin (100ng/ml)+Vc (0.25 mM). Cells were fed with fresh medium every other day.
V-bottom plate based aggregation: stage-4 cells were rinsed with PBS and then incubated with Accutase (Millipore) for 10-15 min at 37° C. Dissociated single cells were rinsed twice with DMEM/F12 and spun at 300 g for 3 min. The resulting cells were re-suspended in an aggregation medium supplied with 10μM Y27632 (Sigma-Aldrich). Cell solution with 0.1-0.4 (according to experimental design) million cells was added into each well of V-bottom 96-well plate, followed by a spun at 300 g for 3 min. The plate was put into 37° C. incubator for 8-12 hours to form clusters. Aggregation medium was made of V4b-Medium+heparin (Sigma, H3149, 10 μg/ml)+ZnSO4 (10 μM, sigma, Z0251)+LDN193189 (LDN, Tocris, 100 nM)+T3 (1 μM, Sigma, T6397)+RA ([…])+SANTI (0.25 μM: Tocris)+GABA (1 mM, Sigma)+human EGF (100 ng/ml, Peprotech)+NICO (10 mM)+VC (0.25 mM). V4b-Medium (800 ml) was made of 360 ml MCDB 131 medium+180 ml F12 medium+180 ml KO-DMEM medium+3.9 ml Glucose (45%, Sigma)+80ml 20% FF-BSA+16 ml Sodium Bicarbonate (7.5%)+4 ml ITX+8 ml Pen/Strep+8ml Glutamax: all items were purchased from Thermo Fisher Scientific unless otherwise indicated.
Single-cell suspension from cell cultures: Differentiated hESC cultures were rinsed with PBS and then incubated with 0.25% trypsin-EDTA (Life Technologies) at 37° C. for 1-3 minutes. The trypsin was neutralized with MEF medium. The dissociated cells were rinsed twice in PBS or DMEM/F12 medium for further analysis. For intracellular antibody staining, single cells were fixed in 200 μL of BD Cytofix/Cytoperm Buffer (BD Biosciences) at 4° C. for 20 minutes followed by three washes in BD Perm/Wash Buffer. Fixed cells were incubated in 150 μL of primary antibody buffer at 4° C. for 1 hour, followed by 30 minutes in a secondary antibody (if there is a secondary antibody) buffer after being rinsed twice in Perm/Wash Buffer. Stained cells were washed twice in Perm/Wash Buffer prior to analyses. The acquired data were analyzed by FlowJo.
Efficient generation of PP 3D-clusters is responsible for generating functional βcells. An hPSC reporter line with NKX6.1-NLS-GFP has been generated by homologous recombination (FIG. 1A and data not shown), which aids in the study of functional β cell production protocols. […]

[1] = Constant high-dose of Activin-A (115-115-115 ng/ml day 1-day 2-day 3)
[2] = Constant low-dose of Activin-A (100-100-100 ng/ml day 1-day 2-day 3)
[3] = Decreasing gradient dose of Activin-A (115-110-100 ng/ml day 1-day 2-day 3)

B1: Activin-A: a TGFβ family member used at stage 1 (protein, UniProt P08476 311-426, looked up)
Inhibin beta A chain: GLECDGKVNICCKKQFFVSFKDIGWNDWIIAPSGYHANYCEGECPSHIAGTSGSSLSFHSTVINHYRMRGHSPFANLKSCCVPTKLRPMSMLYYDDGQNIIKKDIQNMIVEECGCS
modifications: Inhibin beta A chain
With B1 as the molecule, how does the NKX6.1-positve cells [1] read?
The NKX6.1-positve cells was ~20%-50%.

What about the PDX1-positve cells [1] of the same molecule?
The PDX1-positve cells was ~90%.

And the PDX1-postive/NKX6.1-positve cells [1]?
The PDX1-postive/NKX6.1-positve cells was ~20%-50%.

And the NKX6.1-positve cells [2]?
The NKX6.1-positve cells was ~15%-50%.

What about the PDX1-positve cells [2] of the same molecule?
The PDX1-positve cells was ~50%-80%.

What about the PDX1-postive/NKX6.1-positve cells [2] of the same molecule?
The PDX1-postive/NKX6.1-positve cells was ~15%-50%.

And the NKX6.1-positve cells [3]?
The NKX6.1-positve cells was ~80%.

And the PDX1-positve cells [3]?
Its PDX1-positve cells is ~93%.

And the PDX1-postive/NKX6.1-positve cells [3]?
Its PDX1-postive/NKX6.1-positve cells is ~80%.

And the “cell density and cell heterogeneity at stage 4” value (constant low-dose Activin-A)?
Its value is “appropriate cell density but resulting in high cell heterogeneity at stage 4”.

And the “cell proliferation and cell density” value (high-dose Activin-A)?
The value was “severely reduced cell proliferation and resulted in suboptimal cell density”.
